# Measurements: publication PMC6791878, “Evaluation of integrin αvβ6 cystine knot PET tracers to detect cancer and idiopathic pulmonary fibrosis” (Nature Communications, 2019)
# Several values for one entry are separate records, joined by “and”; a condition that tells them apart may be missing. Equal entries are not always repeated. Where two headings read alike, the source gives them in different places.
# Legend:
# [1] = system: integrin αvβ6-positive A431 xenografts; assay: Static small animal PET, integrin αvβ6-positive tumor model; format: in vivo, mouse; conditions: microPET 1 hr, individual mice, listed as Ro1-MG NODAGA Ga-68
# [2] = as above; format: in vivo, mouse; conditions: female, athymic nude (Nu/Nu), mouse, in vivo, iv, 100 uCi, total radioactivity, PET, 1 h p.i., average ± SD, n = 3
# Text: (§1) Eight planes were acquired in the coronal section.
# (§2) Supplementary Figure 5. [18F]FP-R01-MG-F2 Static PET Imaging. (A) Representative PET images of nu/nu mice bearing in integrin αvβ6-positive A431 xenografts (left) and integrin αvβ6-negative 293 xenograft (right) models following injection of […] [18F]FP-R01-MG-F2. Location of tumor and kidneys are indicated by the letters T and K.
# [3] = system: integrin αvβ6-positive A431 xenografts; assay: as above; format: in vivo, mouse
# Text: as §1, §2
# clinical = conditions: human, iv, total radioactivity
# Procedure: (§3) The administered dose was 55.5–96.2MBq (1.5–2.6 mCi). The scan (6 bed positions, 2 min bed^−1) covered an area that included the top of the skull to the middle of the femur. OSEM was applied for reconstruction. […] The CT scan (140 kV, 35 mA, pitch of 1:1, layer of 5 mm thickness; layer spacing of 3 mm, 512*512 matrix, field of view of 70 cm) also covered the top of the skull to the middle of the femur. […] Immediately upon completion of the first scan, the second whole-body static PET data was acquired. Sequentially, multiple whole-body static PET scans were acquired, one by one, from 0 to 75 min.
# (§4) Upon co-registration of the PET and CT images, the CT images were used to determine regions of interest for the organs or tissues reported in the manuscript. These ROIs were applied to the PET images of the brain, pituitary gland, breast, lower and upper large intestine, small intestine, stomach, pancreas, heart wall, liver, lung, muscle, red marrow, bone, skin, and thyroid gland. For high uptake organs such as the kidneys, bladder and for the whole body, threshold-based segmentation of PET images were used to determine a close-fitting ROI around the entire organ or whole body. In order to determine accuracy, these PET-derived ROIs were compared to the CT overlay for a close match.
# [4] = system: pancreatic, cervical and lung cancer; conditions: one patient, Fig 4C
# Procedure: as §3, §4
# [5] = microPET 1 hr, individual mice, listed as Ro1-MG NODAGA Ga-68
compound,measurement,setting,value
"CC[C@H](C)[C@@H]1NC(=O)[C@@H](NC(=O)CNC(=O)CCC(C(=O)O)N2CCN(CC(=O)O)CCN(CC(=O)O)CC2)CSSC[C@@H]2NC(=O)[C@H](C)NC(=O)CNC(=O)[C@@H]3CCCN3C(=O)[C@@H]3CSSC[C@@H](C(=O)NCC(N)=O)NC(=O)[C@H](Cc4ccc(O)cc4)NC(=O)CNC(=O)[C@H](CC(N)=O)NC(=O)CNC(=O)[C@H](CCCNC(=N)N)NC(=O)[C@H](CSSC[C@H](NC(=O)[C@H](CCCNC(=N)N)NC(=O)[C@H](Cc4ccccc4)NC(=O)[C@H](CC(C)C)NC(=O)[C@H](CC(C)C)NC(=O)[C@H]([C@@H](C)O)NC(=O)CNC(=O)[C@H](CC(C)C)NC(=O)[C@H](CC(=O)O)NC(=O)[C@H]([C@@H](C)O)NC(=O)[C@H](CCCNC(=N)N)NC(=O)CNC(=O)[C@H](CC(N)=O)NC(=O)[C@H](CC(C)C)NC1=O)C(=O)N[C@@H](CCCNC(=N)N)C(=O)N[C@@H](CCCNC(=N)N)C(=O)N[C@@H](CC(=O)O)C(=O)N[C@@H](CO)C(=O)N[C@@H](CC(=O)O)C(=O)N3)NC(=O)[C@H]([C@@H](C)CC)NC2=O (stereo partly shown) [[^68Ga]NODAGA-R01-MG, metal not drawn]",Tumor avb6(+),[1]; source data of Table 3,3.142 and 2.463 and 2.614 and 2.906
same,Liver,[1],0.7389 and 1.216 and 1.257 and 1.6013
same,tissue uptake at 1 h,"[2]; αvβ6 (+), read-out: Tumor",2.78 ± 0.3 %ID/g
same,tissue uptake at 1 h,[2]; read-out: Kidney,30.1 ± 5.51 %ID/g
same,tissue uptake at 1 h,[2]; read-out: Liver,1.2 ± 0.35 %ID/g
same,tissue uptake at 1 h,[2]; read-out: Muscle,0.589 ± 0.124 %ID/g
same,tissue to tissue ratio at 1 h,[2]; read-out: T:M Ratio (tumor-to-muscle),4.86 ± 1.04
same,Muscle,"[3]; PET, 1 h p.i., average ± SD, n = 3",0.6 ± 0.1 %ID g^−1
same,Kidney,[3]; [5],34.6175 and 26.042 and 24.5731 and 34.9763
same,Muscle,[3]; [5],0.5495 and 0.6119 and 0.4496 and 0.7461
same,SUV,"clinical; both, kidney, average SUVmean, ~1 h p.i., cancer patients",19.9 ± 2.23 SUV
same,SUV,"clinical; both, normal pancreas, SUVmean, n = 5, ± S.D.",1.79 ± 0.47 SUV
same,SUV,"clinical; both, pancreatic tumour, average SUVmean, pancreatic cancer, pancreatic cancer patients",4.2 ± 0.1 SUV
same,SUV,"clinical; both, small intestines, average SUVmean, cancer patients",7.06 ± 2.74 SUV
same,SUV,"clinical; both, stomach, average SUVmean, cancer patients",8.87 ± 6.52 SUV
same,SUV,"clinical; head of pancreas, SUVmean, one pancreatic cancer patient (Fig 4d)",~3.1 SUV
same,SUV,"clinical; lung tumor, SUVmean, patient, squamous cell carcinoma of the lung",2.2 SUV
same,SUV,"clinical; tail of pancreas, SUVmean, one pancreatic cancer patient (Fig 4d)",~4.4 SUV
same,SUV,"clinical; tumor in tail of pancreas, 2.2 mCi, SUVmean, patient, ~50 minutes p.i.",4.3 SUV
same,ROI uptake Bl (bladder),[4]; 9 min p.i.,1.885
same,ROI uptake Bn (osteogenic cells),[4]; 9 min p.i.,0.4959
same,ROI uptake Br (brain),[4]; 9 min p.i.,0.05775
same,ROI uptake Brs (breast),[4]; 9 min p.i.,0.428
same,ROI uptake HC (heart contents),[4]; 9 min p.i.,1.158
same,ROI uptake HW (heart wall),[4]; 9 min p.i.,0.7507
same,ROI uptake LLI (lower large intestine),[4]; 9 min p.i.,1.4
same,ROI uptake Ln (lung),[4]; 9 min p.i.,0.3091
same,ROI uptake Lv (liver),[4]; 9 min p.i.,0.8628
same,ROI uptake Ms (muscle),[4]; 9 min p.i.,0.6964
same,ROI uptake Pn (pancreas),[4]; 9 min p.i.,1.576
same,ROI uptake Pt (pituitary gland),[4]; 9 min p.i.,2.269
same,ROI uptake RM (red marrow),[4]; 9 min p.i.,0.2412
same,ROI uptake SI (small intestine),[4]; 9 min p.i.,6.974
same,ROI uptake Sk (skin),[4]; 9 min p.i.,0.09851
same,ROI uptake Sp (spleen),[4]; 9 min p.i.,0.7065
same,ROI uptake St (stomach),[4]; 9 min p.i.,2.524
same,ROI uptake TB (total body),[4]; 9 min p.i.,0.6998
same,ROI uptake Tm (thymus),[4]; 9 min p.i.,0.7337
same,ROI uptake Tr (thyroid),[4]; 9 min p.i.,1.94
same,ROI uptake ULI (upper large intestine),[4]; 9 min p.i.,1.923
same,ROI uptake Bl (bladder),[4]; 22 min p.i.,6.4
same,ROI uptake Bn (osteogenic cells),[4]; 22 min p.i.,0.4058
same,ROI uptake Br (brain),[4]; 22 min p.i.,0.03902
same,ROI uptake Brs (breast),[4]; 22 min p.i.,0.5151
same,ROI uptake HC (heart contents),[4]; 22 min p.i.,0.7844
same,ROI uptake HW (heart wall),[4]; 22 min p.i.,0.4761
same,ROI uptake LLI (lower large intestine),[4]; 22 min p.i.,1.495
same,ROI uptake Ln (lung),[4]; 22 min p.i.,0.3044
same,ROI uptake Lv (liver),[4]; 22 min p.i.,0.7375
same,ROI uptake Ms (muscle),[4]; 22 min p.i.,0.6868
same,ROI uptake Pn (pancreas),[4]; 22 min p.i.,1.214
same,ROI uptake Pt (pituitary gland),[4]; 22 min p.i.,1.986
same,ROI uptake RM (red marrow),[4]; 22 min p.i.,0.1015
same,ROI uptake SI (small intestine),[4]; 22 min p.i.,7.153
same,ROI uptake Sk (skin),[4]; 22 min p.i.,0.09365
same,ROI uptake Sp (spleen),[4]; 22 min p.i.,0.5971
same,ROI uptake St (stomach),[4]; 22 min p.i.,2.337
same,ROI uptake TB (total body),[4]; 22 min p.i.,0.6751
same,ROI uptake Tm (thymus),[4]; 22 min p.i.,0.7375
same,ROI uptake Tr (thyroid),[4]; 22 min p.i.,0.7922
same,ROI uptake ULI (upper large intestine),[4]; 22 min p.i.,1.432
same,ROI uptake Bl (bladder),[4]; 36 min p.i.,8.426
same,ROI uptake Bn (osteogenic cells),[4]; 36 min p.i.,0.4395
same,ROI uptake Br (brain),[4]; 36 min p.i.,0.03531
same,ROI uptake Brs (breast),[4]; 36 min p.i.,0.6278
same,ROI uptake HC (heart contents),[4]; 36 min p.i.,0.722
same,ROI uptake HW (heart wall),[4]; 36 min p.i.,0.4798
same,ROI uptake LLI (lower large intestine),[4]; 36 min p.i.,1.238
same,ROI uptake Ln (lung),[4]; 36 min p.i.,0.3094
same,ROI uptake Lv (liver),[4]; 36 min p.i.,0.6906
same,ROI uptake Ms (muscle),[4]; 36 min p.i.,0.7579
same,ROI uptake Pn (pancreas),[4]; 36 min p.i.,1.296
same,ROI uptake Pt (pituitary gland),[4]; 36 min p.i.,2.22
